The target of experiment [1] is T1, recombinant human FZD5-Fc chimera (R&D Systems, Catalog no. 1617-FZ) (human, UniProt Q13467 27-167).
T1 construct: used for selection and ELISA; Fc part of the bought chimera not given
T1 sequence: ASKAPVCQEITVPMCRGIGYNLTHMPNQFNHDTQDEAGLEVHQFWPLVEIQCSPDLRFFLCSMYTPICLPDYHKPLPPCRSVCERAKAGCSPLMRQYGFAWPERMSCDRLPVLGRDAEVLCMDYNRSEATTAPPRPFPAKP
Kind of experiment: SPR, Frizzled-Fc chimera.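 Note: binding targets are Fc fusions carrying an extracellular Frizzled fragment that contains the CRD.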

In the next experiment the target is T2, FZD8-Fc (UniProt Q9H461 28-158, limits assumed).
T2 construct: extracellular domain; also called Frizzled-Fc chimera (FZD8); not shown: Fc part
T2 sequence (looked up): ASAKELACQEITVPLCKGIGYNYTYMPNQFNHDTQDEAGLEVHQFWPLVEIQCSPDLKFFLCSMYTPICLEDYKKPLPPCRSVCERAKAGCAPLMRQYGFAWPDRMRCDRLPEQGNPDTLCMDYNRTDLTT
Nature of the experiment: SPR, Frizzled-Fc chimera.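 Note: binding targets are Fc fusions carrying an extracellular Frizzled fragment that contains the CRD.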

Experiment [2] deals with T3, FZD3 cysteine-rich domain (CRD), MYC-tagged and GPI-anchored on CHO cells (human, UniProt Q9NPG1 24-150, GPI anchor).
T3 construct: domain: cysteine-rich domain (CRD); also called FZD3 CRD; CHO-myc-FZDGPI; not shown: MYC tag and GPI anchor signal
T3 sequence (looked up): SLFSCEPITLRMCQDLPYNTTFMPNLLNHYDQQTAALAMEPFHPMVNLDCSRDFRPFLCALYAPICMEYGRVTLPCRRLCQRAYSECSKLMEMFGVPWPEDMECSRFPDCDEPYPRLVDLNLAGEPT
Nature of the experiment: immunofluorescence, CHO-CRD cells.

Experiment [3] deals with T4, FZD6 cysteine-rich domain (CRD), MYC-tagged and GPI-anchored on CHO cells (human, UniProt O60353 20-146, GPI anchor).
T4 construct: also called FZD6 CRD; CHO-myc-FZDGPI; not shown: MYC tag and GPI anchor signal
T4 sequence: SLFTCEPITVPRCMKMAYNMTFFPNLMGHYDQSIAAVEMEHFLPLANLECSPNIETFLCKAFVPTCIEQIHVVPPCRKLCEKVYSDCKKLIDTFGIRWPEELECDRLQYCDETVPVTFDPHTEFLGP
Kind of experiment: immunofluorescence, CHO-CRD cells.

The target of experiment [4] is T5, FZD4 cysteine-rich domain (CRD), MYC-tagged and GPI-anchored on CHO cells (human, UniProt Q9ULV1 42-167, GPI anchor).
T5 construct: also called FZD4 CRD; CHO-myc-FZDGPI; not shown: MYC tag and GPI anchor signal
T5 sequence: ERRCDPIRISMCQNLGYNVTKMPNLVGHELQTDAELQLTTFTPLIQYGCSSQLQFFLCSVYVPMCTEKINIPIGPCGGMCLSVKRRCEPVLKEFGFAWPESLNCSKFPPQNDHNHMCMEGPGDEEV
Kind of experiment: immunofluorescence, CHO-CRD cells.

The target of experiment [5] is T6, FZD9 cysteine-rich domain (CRD), MYC-tagged and GPI-anchored on CHO cells (human, UniProt O00144 35-161, GPI anchor).
T6 construct: also called FZD9 CRD; CHO-myc-FZDGPI; not shown: MYC tag and GPI anchor signal
T6 sequence: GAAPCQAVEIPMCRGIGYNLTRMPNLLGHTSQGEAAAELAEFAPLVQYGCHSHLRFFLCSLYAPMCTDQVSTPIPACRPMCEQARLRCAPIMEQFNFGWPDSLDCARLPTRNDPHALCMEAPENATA
Kind of experiment: immunofluorescence, CHO-CRD cells.

The target of experiment [6] is T7, FZD10 cysteine-rich domain (CRD), MYC-tagged and GPI-anchored on CHO cells (human, UniProt Q9ULW2 30-156, GPI anchor).
T7 construct: also called FZD10 CRD; CHO-myc-FZDGPI; not shown: MYC tag and GPI anchor signal
T7 sequence: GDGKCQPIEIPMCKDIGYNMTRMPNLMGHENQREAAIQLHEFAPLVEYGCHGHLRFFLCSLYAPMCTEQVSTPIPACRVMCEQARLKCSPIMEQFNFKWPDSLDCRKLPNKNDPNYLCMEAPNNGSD
Nature of the experiment: immunofluorescence, CHO-CRD cells.

Experiment [7] deals with T8, FZD5 cysteine-rich domain (CRD), MYC-tagged and GPI-anchored on CHO cells (human, UniProt Q13467 29-156, GPI anchor).
T8 construct: also called FZD5 CRD; CHO-myc-FZDGPI; not shown: MYC tag and GPI anchor signal
T8 sequence: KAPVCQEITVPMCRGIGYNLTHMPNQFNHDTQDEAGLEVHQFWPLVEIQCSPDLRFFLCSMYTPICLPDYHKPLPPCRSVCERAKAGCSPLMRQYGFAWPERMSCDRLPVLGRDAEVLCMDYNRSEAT
Kind of experiment: flow cytometry, CHO-CRD cells.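 Note: flow cytometry of Fab binding to CHO cells overexpressing a Frizzled CRD, with binding defined as median fluorescence over twice that of CHO cells lacking any Frizzled CRD.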

Experiment [8] deals with T3, FZD3 cysteine-rich domain (CRD), …. Nature of the experiment: flow cytometry, CHO-CRD cells.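 Note: flow cytometry of Fab binding to CHO cells overexpressing a Frizzled CRD, with binding defined as median fluorescence over twice that of CHO cells lacking any Frizzled CRD.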
For experiment [9], the target named is T4, FZD6 cysteine-rich domain (CRD), …. Kind of experiment: flow cytometry, CHO-CRD cells.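 Note: flow cytometry of Fab binding to CHO cells overexpressing a Frizzled CRD, with binding defined as median fluorescence over twice that of CHO cells lacking any Frizzled CRD.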
For experiment [10], the target named is T5, FZD4 cysteine-rich domain (CRD), …. Kind of experiment: flow cytometry, CHO-CRD cells.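 Note: flow cytometry of Fab binding to CHO cells overexpressing a Frizzled CRD, with binding defined as median fluorescence over twice that of CHO cells lacking any Frizzled CRD.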
For experiment [11], the target named is T6, FZD9 cysteine-rich domain (CRD), …. Nature of the experiment: flow cytometry, CHO-CRD cells.
Experiment [12] has as its target FZD1 cysteine-rich domain (CRD), MYC-tagged and GPI-anchored on CHO cells (human). Nature of the experiment: flow cytometry, CHO-CRD cells.
Experiment [13] concerns the target T9, FZD8 cysteine-rich domain (CRD), MYC-tagged and GPI-anchored on CHO cells (human, UniProt Q498S8 31-155 (rat entry), GPI anchor).
T9 construct: also called FZD8 CRD; CHO-myc-FZDGPI; not shown: MYC tag and GPI anchor signal
T9 sequence: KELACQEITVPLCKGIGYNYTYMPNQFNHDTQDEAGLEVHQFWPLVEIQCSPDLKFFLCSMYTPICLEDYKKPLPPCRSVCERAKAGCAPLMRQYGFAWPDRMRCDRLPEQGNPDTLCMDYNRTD
Kind of experiment: flow cytometry, CHO-CRD cells.

The target in experiment [14] is FZD2 cysteine-rich domain (CRD), MYC-tagged and GPI-anchored on CHO cells (human, UniProt Q14332 35-161). Kind of experiment: flow cytometry, CHO-CRD cells.
Experiment [15] concerns the target FZD7 cysteine-rich domain (CRD), MYC-tagged and GPI-anchored on CHO cells (human, UniProt O75084 45-169). Kind of experiment: flow cytometry, CHO-CRD cells.
Experiment [16] concerns the target T7, FZD10 cysteine-rich domain (CRD), …. Kind of experiment: flow cytometry, CHO-CRD cells.

The source of these data is US20210253718A1 (MODMAB THERAPEUTICS, published 2021).

Changes are numbered by the printed parent chain.

B1: IgG-2921 (antibody, V domains shown)
VH: EVQLVESGGGLVQPGGSLRLSCAASGFNISYYYIHWVRQAPGKGLEWVASIYPSSGSTSYADSVKGRFTISADTSKNTAYLQMNSLRAEDTAVYYCARGAMDYWGQGTLVTVSS
VL: DIQMTQSPSSLSASVGDRVTITCRASQSVSSAVAWYQQKPGKAPKLLIYSASSLYSGVPSRFSGSRSGTDFTLTISSLQPEDFATYYCQQWYAGSLITFGQGTKVEIK
Consider B1, for which, in [1], the Kd stood at 106 pM, the koff came to 9.81e-05 s⁻¹ and the kon turned out to be 922000 M⁻¹ s⁻¹. Besides, in the experiment with FZD8-Fc, binding was characterised by a dissociation constant (Kd) of 24.4 pM, the koff was 2.71e-05 s⁻¹ and the kon is 1.11e+06 M⁻¹ s⁻¹.

B2: IgG-2919 (antibody, V domains shown)
VH: B1 VH with Y32S, P53S, M101I
VL: DIQMTQSPSSLSASVGDRVTITCRASQSVSSAVAWYQQKPGKAPKLLIYSASSLYSGVPSRFSGSRSGTDFTLTISSLQPEDFATYYCQQWYSSGHVLITFGQGTKVEIKR
notes: human IgG1 heavy chain (hG1), human kappa light chain (hK)
Consider B2, for which, in experiment [1], the Kd is 194 pM, the koff is 8.06e-05 s⁻¹ and the kon was determined as 416000 M⁻¹ s⁻¹. In the experiment with FZD8-Fc, the Kd is 42.7 pM, the koff amounted to 2.28e-05 s⁻¹ and the kon stood at 533000 M⁻¹ s⁻¹.

B3: IgG-2920 (antibody, V domains shown)
VH: B1 VH with A100G
VL: B1 VL with Y92F, S95A
Turning to B3, in [1], the Kd was 88.3 pM, the koff turned out to be 0.000317 s⁻¹ and the kon was 3.59e+06 M⁻¹ s⁻¹. Besides, in the experiment with FZD8-Fc, the Kd is 56 pM, the koff stood at 0.000238 s⁻¹ and the kon came out at 4.25e+06 M⁻¹ s⁻¹.

B4: IgG-2910 (antibody, V domains shown)
VH: B1 VH with Y32S, I34M, P53S, G56S
VL: B1 VL with A93G, G94S, S95H
For the molecule B4, in experiment [1], the dissociation constant (Kd) was found to be 115 pM, the dissociation rate constant (koff) turned out to be 0.000174 s⁻¹ and the kon came out at 1.52e+06 M⁻¹ s⁻¹. Besides, in the experiment with FZD8-Fc, the Kd was 42.7 pM, the koff came out at 2.28e-05 s⁻¹ and the kon was determined as 533000 M⁻¹ s⁻¹.

B5: Fab-2916 (Fab, V domains shown)
VH: EVQLVESGGGLVQPGGSLRLSCAASGFNISYSSIHWVRQAPGKGLEWVASIYPSYSYTYYADSVKGRFTISADTSKNTAYLQMNSLRAEDTAVYYCARYGYYGMDYWGQGTLVTVSS
VL: DIQMTQSPSSLSASVGDRVTITCRASQSVSSAVAWYQQKPGKAPKLLIYSASSLYSGVPSRFSGSRSGTDFTLTISSLQPEDFATYYCQQWYHYPYLITFGQGTKVEIK
notes: Fab
Consider B5, for which the binding result in [2], in [3], in experiment [4], in experiment [5] and in [6] was “no binding” in each case. Moreover, the median fluorescence is 24.1 in experiment [7]; 4.53 in [8]; 3.49 in [9]; 6.1 in experiment [10]; 3.52 in [11]; 34.3 in [12]. The median fluorescence in [13] came out at 7.37; in [14], 18.9; in experiment [15], 36.2; in experiment [16], 2.94.

B6: IgG-2929 (antibody, V domains shown)
VH: B1 VH with G56S
VL: B5 VL with H93S, Y94S, P95Y, Y96G
notes: also called Fv-2929
Take B6: the kon was found to be 2.77e+06 M⁻¹ s⁻¹ in experiment [1] and 3.27e+06 M⁻¹ s⁻¹ with FZD8-Fc.

B7: Fab-2927 (Fab, V domains shown)
VH: B5 VH with S30Y, I34M, S56G, Y59S, M104F
VL: B5 VL with Y92G, H93S, Y94H, P95G
notes: Fab; also called Fv-2927
Regarding B7, the binding result in [2], in experiment [3], in [4], in experiment [5] and in experiment [6] was “no binding” throughout. Moreover, the median fluorescence was determined as 28.3 in [7]; 4.45 in [8]; 3.05 in [9]; 5.94 in [10]; 3.85 in experiment [11]; 18.7 in [12]. Further, the median fluorescence turned out to be 10.3 in experiment [13], 17.9 in experiment [14], 16.7 in experiment [15] and 3.31 in experiment [16].
